Measurements published in patent publication US20120253017A1 (published 2012).
Values belong to the binder of their own block, whether it stands above or below them.

B6: mouse Stem Cell Factor, 6xHIS tag (ligand, UniProt P20826 26-190, looked up)
chain: KEICGNPVTDNVKDITKLVANLPNDYMITLNYVAGMDVLPSHCWLRDMVIQLSLSLTTLLDKFSNISEGLSNYSIIDKLGKIVDDLVLCMEENAPKNIKESPKRPETRSFTPEEFFSIFNRSIDAFKDFMVASDTSDCVLSSTLGPEKDSRVSVTKPFMLPPVAA
notes: also called mSCF; murine SCF

Assays:
[1] = target: T1, human c-kit (recombinant, on BIAcore chip or beads) (human, UniProt P10721 26-524); assay: BIAcore, bad fit
T1 construct: extracellular domain; also called hcKIT; biotinylated human c-kit

[2] = target: Myosin Light Chain (on streptavidin chip; vMLC1-sulfotag); assay: BIAcore, bad fit
[3] = target: T2, cyno c-kit (recombinant, on BIAcore chip) (cynomolgus monkey); assay: BIAcore, c-kit on SA chip
T2 chain: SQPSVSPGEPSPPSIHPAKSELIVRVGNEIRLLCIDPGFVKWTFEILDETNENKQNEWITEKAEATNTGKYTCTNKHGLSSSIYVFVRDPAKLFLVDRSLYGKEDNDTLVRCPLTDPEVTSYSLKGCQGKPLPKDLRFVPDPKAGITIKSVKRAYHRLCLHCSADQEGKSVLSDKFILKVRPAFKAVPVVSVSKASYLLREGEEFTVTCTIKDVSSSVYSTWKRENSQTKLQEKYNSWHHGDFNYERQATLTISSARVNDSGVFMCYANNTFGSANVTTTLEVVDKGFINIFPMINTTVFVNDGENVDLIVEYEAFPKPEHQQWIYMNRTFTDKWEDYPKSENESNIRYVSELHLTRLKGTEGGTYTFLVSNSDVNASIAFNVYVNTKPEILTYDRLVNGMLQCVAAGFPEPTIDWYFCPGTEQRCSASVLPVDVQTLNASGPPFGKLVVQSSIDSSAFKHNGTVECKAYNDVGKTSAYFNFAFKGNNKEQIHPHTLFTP
Experimental: (§1) All unique dAb clones were expressed in 50 ml cultures (OnEX plus carbenicillin) overnight at 37° C. and purified on protein A (VH dAbs) or protein L (VK dAbs). Purified dAbs were passed over a SA BIAcore chip coated with either human or mouse c-kit at 1 μM to identify those dAbs that bound specifically to either human or murine c-kit.

[4] = target: T1, human c-kit (recombinant, on BIAcore …); assay: BIAcore, c-kit on SA chip
Experimental: as §1

rat cKIT ECD = target: T3, rat cKIT ECD (rat, UniProt Q63116 25-526); assay: BIAcore, bad fit
T3 construct: cloned into pDOM38, which provides a human IgG1 Fc; also called rcKIT; rckit; not shown: Human IgG1 Fc (and any linker) supplied by vector pDOM38

[5] = target: T1, human c-kit (recombinant, on BIAcore …); assay: BIAcore 2000
[6] = target: T4, human c-kit on HEL-92.1.7 and KU812 cells (human, UniProt P10721 26-976); assay: flow cytometry, HEL-92.1.7 cells (also YES on c-kit negative Jurkat)
T4 construct: whole, on cells

[7] = target: B6; assay: BIAcore, SCF on CM5 chip
Experimental: (§2) Human and murine SCF were covalently attached to a CM5 BIAcore chip (GE Healthcare) in the presence of acetate pH 4 for both antigens. cKIT from various species were diluted to 1 μM in HBS-EP buffer (GE Healthcare) and run on the BIAcore in a 2-fold serial dilution to 1 nM.
(§3) Anti-human and anti-mouse SCF monoclonal antibodies (mAb) were used as controls (R&D systems).

[8] = target: T5, human Stem Cell Factor, 6xHIS tag (human, UniProt P21583 26-190, limits assumed); assay: BIAcore, SCF on CM5 chip
T5 construct: also called hSCF; human SCF
Experimental: as §2, §3

[9] = target: T1, human c-kit (recombinant, on BIAcore …); assay: BIAcore 2000, 1 uM dAb
Experimental: All binding data was performed on a BIAcore 2000 instrument at 1 uM of dAb concentration.

[10] = target: T1, human c-kit (recombinant, on BIAcore …); assay: BIAcore
Human cKIT ECD-Fc = target: T6, Human cKIT ECD-Fc (human, UniProt P10721 26-524); assay: BIAcore, SCF on CM5 chip
T6 construct: extracellular domain; also called hcKIT; human c-KIT ECD-hIgG1 Fc fusion; not shown: human IgG1 Fc (pDOM38)
Experimental: as §2, §3

Mouse cKIT ECD-H6 = target: T7, Mouse cKIT ECD-H6 (mouse, UniProt P05532 25-527); assay: BIAcore, SCF on CM5 chip
T7 construct: extracellular domain; also called mouse c-kit (His tagged)
T7 sequence (looked up): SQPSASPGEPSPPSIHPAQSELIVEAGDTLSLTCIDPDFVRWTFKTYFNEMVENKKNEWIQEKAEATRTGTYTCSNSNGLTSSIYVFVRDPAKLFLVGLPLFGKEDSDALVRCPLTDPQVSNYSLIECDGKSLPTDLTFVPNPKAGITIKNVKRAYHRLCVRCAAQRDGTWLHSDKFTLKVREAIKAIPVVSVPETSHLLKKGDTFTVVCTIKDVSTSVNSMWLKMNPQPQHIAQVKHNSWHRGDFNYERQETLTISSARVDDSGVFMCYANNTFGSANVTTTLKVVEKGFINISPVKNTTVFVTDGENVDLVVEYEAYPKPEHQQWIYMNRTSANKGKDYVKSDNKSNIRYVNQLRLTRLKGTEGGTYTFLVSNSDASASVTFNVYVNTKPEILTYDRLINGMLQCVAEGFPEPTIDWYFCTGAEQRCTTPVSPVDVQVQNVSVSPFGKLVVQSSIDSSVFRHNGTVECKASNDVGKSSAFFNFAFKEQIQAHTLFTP
Experimental: as §2, §3

T3 sequence (Q63116 entry or part of it limits assumed, form in doubt): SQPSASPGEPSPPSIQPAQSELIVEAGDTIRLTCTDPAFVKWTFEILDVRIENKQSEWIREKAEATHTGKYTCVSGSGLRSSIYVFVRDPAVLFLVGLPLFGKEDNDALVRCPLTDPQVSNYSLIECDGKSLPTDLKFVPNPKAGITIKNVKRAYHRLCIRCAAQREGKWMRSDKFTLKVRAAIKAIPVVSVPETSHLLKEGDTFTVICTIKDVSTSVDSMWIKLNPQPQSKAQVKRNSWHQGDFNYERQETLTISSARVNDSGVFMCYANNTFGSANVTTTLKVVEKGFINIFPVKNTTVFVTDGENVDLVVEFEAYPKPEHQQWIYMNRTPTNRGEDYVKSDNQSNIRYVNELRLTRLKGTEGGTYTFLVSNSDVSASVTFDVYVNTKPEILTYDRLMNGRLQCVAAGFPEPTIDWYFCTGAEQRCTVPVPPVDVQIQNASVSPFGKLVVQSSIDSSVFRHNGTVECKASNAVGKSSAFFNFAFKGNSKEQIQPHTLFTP
T4 sequence (P10721 26-976): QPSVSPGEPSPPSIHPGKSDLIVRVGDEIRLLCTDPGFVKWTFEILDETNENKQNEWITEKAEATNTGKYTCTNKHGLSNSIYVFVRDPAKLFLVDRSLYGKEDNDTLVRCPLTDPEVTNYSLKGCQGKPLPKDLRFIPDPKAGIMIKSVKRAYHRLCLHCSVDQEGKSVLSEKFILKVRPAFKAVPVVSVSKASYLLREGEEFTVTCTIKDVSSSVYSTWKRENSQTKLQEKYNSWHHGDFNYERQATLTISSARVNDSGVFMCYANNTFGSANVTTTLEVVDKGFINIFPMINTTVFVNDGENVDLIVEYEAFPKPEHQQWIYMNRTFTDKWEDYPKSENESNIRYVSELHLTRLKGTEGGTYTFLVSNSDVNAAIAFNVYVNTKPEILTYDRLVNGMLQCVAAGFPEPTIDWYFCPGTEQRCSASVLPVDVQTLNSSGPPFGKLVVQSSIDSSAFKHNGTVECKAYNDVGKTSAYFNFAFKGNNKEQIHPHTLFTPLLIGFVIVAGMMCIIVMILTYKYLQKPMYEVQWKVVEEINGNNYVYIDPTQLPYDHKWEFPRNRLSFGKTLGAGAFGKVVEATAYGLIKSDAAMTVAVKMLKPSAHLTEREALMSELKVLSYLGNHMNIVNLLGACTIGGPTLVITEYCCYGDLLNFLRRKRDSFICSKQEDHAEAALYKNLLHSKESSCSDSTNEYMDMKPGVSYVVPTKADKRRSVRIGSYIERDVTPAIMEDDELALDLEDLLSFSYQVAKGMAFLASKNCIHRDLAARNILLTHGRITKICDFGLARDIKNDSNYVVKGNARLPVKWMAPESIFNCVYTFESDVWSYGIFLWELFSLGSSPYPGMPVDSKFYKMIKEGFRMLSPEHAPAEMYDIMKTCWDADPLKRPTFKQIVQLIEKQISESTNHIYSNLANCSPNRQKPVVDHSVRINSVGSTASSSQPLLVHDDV
T6 sequence (P10721 26-524): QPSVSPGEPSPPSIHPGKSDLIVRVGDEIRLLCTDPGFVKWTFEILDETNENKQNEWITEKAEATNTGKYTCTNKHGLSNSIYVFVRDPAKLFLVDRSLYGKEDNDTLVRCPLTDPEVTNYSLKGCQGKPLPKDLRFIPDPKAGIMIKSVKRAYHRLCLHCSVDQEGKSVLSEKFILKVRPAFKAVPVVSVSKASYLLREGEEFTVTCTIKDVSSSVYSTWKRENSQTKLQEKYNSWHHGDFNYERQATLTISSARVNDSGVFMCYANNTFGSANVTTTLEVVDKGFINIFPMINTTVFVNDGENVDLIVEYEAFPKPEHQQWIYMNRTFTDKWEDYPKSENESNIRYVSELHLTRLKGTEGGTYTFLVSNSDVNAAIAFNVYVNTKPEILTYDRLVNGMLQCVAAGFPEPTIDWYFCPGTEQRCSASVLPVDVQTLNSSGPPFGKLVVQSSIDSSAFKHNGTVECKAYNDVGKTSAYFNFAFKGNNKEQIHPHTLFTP
Chain of Myosin Light Chain (on streptavidin chip; vMLC1-sulfotag) (chain, as listed by the source): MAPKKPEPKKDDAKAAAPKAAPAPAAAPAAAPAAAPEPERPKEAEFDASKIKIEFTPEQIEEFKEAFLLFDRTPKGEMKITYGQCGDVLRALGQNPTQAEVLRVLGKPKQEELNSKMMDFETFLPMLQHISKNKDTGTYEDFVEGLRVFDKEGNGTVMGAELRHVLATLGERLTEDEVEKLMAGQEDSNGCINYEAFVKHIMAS

Kd [1]: 8 nM
Kd [2]: 10 nM
B1: DMS5059 (chimeric MLC mAb-cKIT dAb, DOM28m-114) (bispecific antibody)
heavy: not shown
light: DIVMSQSPSSLAVSAGDKVTMSCKSSQSLLYSRTRKNYLAWYQQKPGQSPKLLIYWASTRQSGVPDRFTGSGSGTDFTLTISSVQAEDLAVYYCKQSYNLFTFGSGTKLEIKRTVAAPSVFIFPPSDEQLKSGTASVVCLLNNFYPREAKVQWKVDNALQSGNSQESVTEQDSKDSTYSLSSTLTLSKADYEKHKVYACEVTHQGLSSPVTKSFNRGEC

Kd [7]: 867 nM
Kd [8]: 369 nM
B4: Cyno cKIT ECD-H6 (receptor)
chain: SQPSVSPGEPSPPSIHPAKSELIVRVGNEIRLLCIDPGFVKWTFEILDETNENKQNEWITEKAEATNTGKYTCTNKHGLSSSIYVFVRDPAKLFLVDRSLYGKEDNDTLVRCPLTDPEVTSYSLKGCQGKPLPKDLRFVPDPKAGITIKSVKRAYHRLCLHCSADQEGKSVLSDKFILKVRPAFKAVPVVSVSKASYLLREGEEFTVTCTIKDVSSSVYSTWKRENSQTKLQEKYNSWHHGDFNYERQATLTISSARVNDSGVFMCYANNTFGSANVTTTLEVVDKGFINIFPMINTTVFVNDGENVDLIVEYEAFPKPEHQQWIYMNRTFTDKWEDYPKSENESNIRYVSELHLTRLKGTEGGTYTFLVSNSDVNASIAFNVYVNTKPEILTYDRLVNGMLQCVAAGFPEPTIDWYFCPGTEQRCSASVLPVDVQTLNASGPPFGKLVVQSSIDSSAFKHNGTVECKAYNDVGKTSAYFNFAFKGNNKEQIHPHTLFTP

The remaining lines, values behind:

B2: DOM28m-7 (other)
VH: EVQLLESGGGLVQPGGSLRLSCAASGFTFSNYAMGWVRQAPGKGLEWVSSISSSGFATYYADSVKGRFTISRDNSKNTLYLQMNSLRAEDTAVYYCAKSESRTFKAFDYWGQGTLVTVSS
notes: VH dAb, C-terminal FLAG tag (pDOM10); also called DOM28m-007
Kd [3]: 29000 nM
Kd [4]: 7200 nM
Kd (rat cKIT ECD): 30 nM

B3: DOM28m-73 (other)
chain: EVQLLESGGGLVQPGGSLRLSCAASGFTFKHYSMNWVRQAPGKGLEWVSRISPSGVSTYYADSVKGRFTISRDNSKNTLYLQMNSLRAEDTAVYYCAKIMNSHKADEFDYWGQGTLVTVSS
notes: dAb, C-terminal FLAG tag (pDOM10)
binding result [5]: no binding (tested: 1 uM)
binding result [6]: binds

B5: DOM28m-23 (other)
VH: EVRLLESGGGLVQPGGSLRLSCAASGFTFRDYVMVWVRQAPGKGLEWVSAIAPTGGYTYYADSVKGRFTISRDNSKNTLYLQMNSLRAEDTAVYYCAKSLRTWLSEDLPFDYWGQGTLVTVSS
notes: VH dAb, C-terminal FLAG tag (pDOM10); also called DOM28m-023
Kd [3]: 2720 nM
Kd [4]: 2900 nM
Kd [9]: 6000 nM
Kd (rat cKIT ECD): 25 nM
Kd [10]: 6000 nM

Binder: B6
Kd (Human cKIT ECD-Fc): 17.7 nM
binding result (Mouse cKIT ECD-H6): no binding (tested: 1 µM)
